Reference: publication PMC12416549 (2024)

T1: TNFR1 (Homo sapiens, UniProt P19438)
T1 chain: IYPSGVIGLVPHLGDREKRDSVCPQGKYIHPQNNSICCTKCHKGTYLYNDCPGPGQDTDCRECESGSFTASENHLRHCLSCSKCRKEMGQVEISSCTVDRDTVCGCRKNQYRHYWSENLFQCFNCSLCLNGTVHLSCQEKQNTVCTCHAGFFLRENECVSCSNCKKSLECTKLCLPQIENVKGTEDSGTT


Target: T1, TNFR1
Assay: yeast display SC50

apparent Kd (screen) | Binder
8.56 nM | Y70W (designed binder) SMEEEVEKAAKEYEKKKKEAIEKHLEKLKAKDKEAAERFLKELEEAAKEYAKDEAKTMSEEEAKRRAKKWKEKVLLSELSEEEQKEIKEAEEKLVRTILKYVEEAAK
1.86 nM | E78D (designed binder) SMEEEVEKAAKEYEKKKKEAIEKHLEKLKAKDKEAAERFLKELEEAAKEYAKDEAKTMSEEEAKRRAKKYKEKVLLSDLSEEEQKEIKEAEEKLVRTILKYVEEAAK
0.446 nM | E34F (designed binder) SMEEEVEKAAKEYEKKKKEAIEKHLEKLKAKDKFAAERFLKELEEAAKEYAKDEAKTMSEEEAKRRAKKYKEKVLLSELSEEEQKEIKEAEEKLVRTILKYVEEAAK
5.84 nM | R66C (designed binder) SMEEEVEKAAKEYEKKKKEAIEKHLEKLKAKDKEAAERFLKELEEAAKEYAKDEAKTMSEEEAKRCAKKYKEKVLLSELSEEEQKEIKEAEEKLVRTILKYVEEAAK
1.05 nM | K17E (designed binder) SMEEEVEKAAKEYEKKEKEAIEKHLEKLKAKDKEAAERFLKELEEAAKEYAKDEAKTMSEEEAKRRAKKYKEKVLLSELSEEEQKEIKEAEEKLVRTILKYVEEAAK
11.4 nM | E14T (designed binder) SMEEEVEKAAKEYTKKKKEAIEKHLEKLKAKDKEAAERFLKELEEAAKEYAKDEAKTMSEEEAKRRAKKYKEKVLLSELSEEEQKEIKEAEEKLVRTILKYVEEAAK
1.54 nM | A106H (designed binder) SMEEEVEKAAKEYEKKKKEAIEKHLEKLKAKDKEAAERFLKELEEAAKEYAKDEAKTMSEEEAKRRAKKYKEKVLLSELSEEEQKEIKEAEEKLVRTILKYVEEAHK
10.4 nM | L40P (designed binder) SMEEEVEKAAKEYEKKKKEAIEKHLEKLKAKDKEAAERFPKELEEAAKEYAKDEAKTMSEEEAKRRAKKYKEKVLLSELSEEEQKEIKEAEEKLVRTILKYVEEAAK
0.49 nM | K23N (designed binder) SMEEEVEKAAKEYEKKKKEAIENHLEKLKAKDKEAAERFLKELEEAAKEYAKDEAKTMSEEEAKRRAKKYKEKVLLSELSEEEQKEIKEAEEKLVRTILKYVEEAAK
2.48 nM | K69Y (designed binder) SMEEEVEKAAKEYEKKKKEAIEKHLEKLKAKDKEAAERFLKELEEAAKEYAKDEAKTMSEEEAKRRAKYYKEKVLLSELSEEEQKEIKEAEEKLVRTILKYVEEAAK
1.54 nM | E12W (designed binder) SMEEEVEKAAKWYEKKKKEAIEKHLEKLKAKDKEAAERFLKELEEAAKEYAKDEAKTMSEEEAKRRAKKYKEKVLLSELSEEEQKEIKEAEEKLVRTILKYVEEAAK
3.99 nM | Y50K (designed binder) SMEEEVEKAAKEYEKKKKEAIEKHLEKLKAKDKEAAERFLKELEEAAKEKAKDEAKTMSEEEAKRRAKKYKEKVLLSELSEEEQKEIKEAEEKLVRTILKYVEEAAK
1.27 nM | S80Q (designed binder) SMEEEVEKAAKEYEKKKKEAIEKHLEKLKAKDKEAAERFLKELEEAAKEYAKDEAKTMSEEEAKRRAKKYKEKVLLSELQEEEQKEIKEAEEKLVRTILKYVEEAAK
0.653 nM | E86N (designed binder) SMEEEVEKAAKEYEKKKKEAIEKHLEKLKAKDKEAAERFLKELEEAAKEYAKDEAKTMSEEEAKRRAKKYKEKVLLSELSEEEQKNIKEAEEKLVRTILKYVEEAAK
7.07 nM | Q84K (designed binder) SMEEEVEKAAKEYEKKKKEAIEKHLEKLKAKDKEAAERFLKELEEAAKEYAKDEAKTMSEEEAKRRAKKYKEKVLLSELSEEEKKEIKEAEEKLVRTILKYVEEAAK
1.05 nM | E4V (designed binder) SMEVEVEKAAKEYEKKKKEAIEKHLEKLKAKDKEAAERFLKELEEAAKEYAKDEAKTMSEEEAKRRAKKYKEKVLLSELSEEEQKEIKEAEEKLVRTILKYVEEAAK
0.208 nM | V102Q (designed binder) SMEEEVEKAAKEYEKKKKEAIEKHLEKLKAKDKEAAERFLKELEEAAKEYAKDEAKTMSEEEAKRRAKKYKEKVLLSELSEEEQKEIKEAEEKLVRTILKYQEEAAK
1.05 nM | K27I (designed binder) SMEEEVEKAAKEYEKKKKEAIEKHLEILKAKDKEAAERFLKELEEAAKEYAKDEAKTMSEEEAKRRAKKYKEKVLLSELSEEEQKEIKEAEEKLVRTILKYVEEAAK

apparent Kd (screen) | Binder
5.31 nM | E14R (designed binder) SMEEEVEKAAKEYRKKKKEAIEKHLEKLKAKDKEAAERFLKELEEAAKEYAKDEAKTMSEEEAKRRAKKYKEKVLLSELSEEEQKEIKEAEEKLVRTILKYVEEAAK
1.86 nM | E3H (designed binder) SMHEEVEKAAKEYEKKKKEAIEKHLEKLKAKDKEAAERFLKELEEAAKEYAKDEAKTMSEEEAKRRAKKYKEKVLLSELSEEEQKEIKEAEEKLVRTILKYVEEAAK
0.0802 nM | Y50I (designed binder) SMEEEVEKAAKEYEKKKKEAIEKHLEKLKAKDKEAAERFLKELEEAAKEIAKDEAKTMSEEEAKRRAKKYKEKVLLSELSEEEQKEIKEAEEKLVRTILKYVEEAAK
13.8 nM | K73N (designed binder) SMEEEVEKAAKEYEKKKKEAIEKHLEKLKAKDKEAAERFLKELEEAAKEYAKDEAKTMSEEEAKRRAKKYKENVLLSELSEEEQKEIKEAEEKLVRTILKYVEEAAK
0.869 nM | K29V (designed binder) SMEEEVEKAAKEYEKKKKEAIEKHLEKLVAKDKEAAERFLKELEEAAKEYAKDEAKTMSEEEAKRRAKKYKEKVLLSELSEEEQKEIKEAEEKLVRTILKYVEEAAK
0.446 nM | E5R (designed binder) SMEERVEKAAKEYEKKKKEAIEKHLEKLKAKDKEAAERFLKELEEAAKEYAKDEAKTMSEEEAKRRAKKYKEKVLLSELSEEEQKEIKEAEEKLVRTILKYVEEAAK
0.446 nM | E62D (designed binder) SMEEEVEKAAKEYEKKKKEAIEKHLEKLKAKDKEAAERFLKELEEAAKEYAKDEAKTMSEEDAKRRAKKYKEKVLLSELSEEEQKEIKEAEEKLVRTILKYVEEAAK
7.07 nM | E91V (designed binder) SMEEEVEKAAKEYEKKKKEAIEKHLEKLKAKDKEAAERFLKELEEAAKEYAKDEAKTMSEEEAKRRAKKYKEKVLLSELSEEEQKEIKEAVEKLVRTILKYVEEAAK
0.869 nM | S1R (designed binder) RMEEEVEKAAKEYEKKKKEAIEKHLEKLKAKDKEAAERFLKELEEAAKEYAKDEAKTMSEEEAKRRAKKYKEKVLLSELSEEEQKEIKEAEEKLVRTILKYVEEAAK
16.7 nM | A46F (designed binder) SMEEEVEKAAKEYEKKKKEAIEKHLEKLKAKDKEAAERFLKELEEFAKEYAKDEAKTMSEEEAKRRAKKYKEKVLLSELSEEEQKEIKEAEEKLVRTILKYVEEAAK
0.539 nM | E37V (designed binder) SMEEEVEKAAKEYEKKKKEAIEKHLEKLKAKDKEAAVRFLKELEEAAKEYAKDEAKTMSEEEAKRRAKKYKEKVLLSELSEEEQKEIKEAEEKLVRTILKYVEEAAK
1.27 nM | K68V (designed binder) SMEEEVEKAAKEYEKKKKEAIEKHLEKLKAKDKEAAERFLKELEEAAKEYAKDEAKTMSEEEAKRRAVKYKEKVLLSELSEEEQKEIKEAEEKLVRTILKYVEEAAK
0.49 nM | E81R (designed binder) SMEEEVEKAAKEYEKKKKEAIEKHLEKLKAKDKEAAERFLKELEEAAKEYAKDEAKTMSEEEAKRRAKKYKEKVLLSELSREEQKEIKEAEEKLVRTILKYVEEAAK
0.446 nM | K23Q (designed binder) SMEEEVEKAAKEYEKKKKEAIEQHLEKLKAKDKEAAERFLKELEEAAKEYAKDEAKTMSEEEAKRRAKKYKEKVLLSELSEEEQKEIKEAEEKLVRTILKYVEEAAK
0.49 nM | T57I (designed binder) SMEEEVEKAAKEYEKKKKEAIEKHLEKLKAKDKEAAERFLKELEEAAKEYAKDEAKIMSEEEAKRRAKKYKEKVLLSELSEEEQKEIKEAEEKLVRTILKYVEEAAK
1.27 nM | E60D (designed binder) SMEEEVEKAAKEYEKKKKEAIEKHLEKLKAKDKEAAERFLKELEEAAKEYAKDEAKTMSDEEAKRRAKKYKEKVLLSELSEEEQKEIKEAEEKLVRTILKYVEEAAK
0.593 nM | E81K (designed binder) SMEEEVEKAAKEYEKKKKEAIEKHLEKLKAKDKEAAERFLKELEEAAKEYAKDEAKTMSEEEAKRRAKKYKEKVLLSELSKEEQKEIKEAEEKLVRTILKYVEEAAK
